Measured values published in patent publication US20230028110A1 (ADAPTATE BIOTHERAPEUTICS, published 2023).
Where a chain is given by its changes, count along the chain named. Numbers in names are those of the source. Like-named read-outs stand apart in the source and are kept apart here.

Legend:
[1] = target: 4-1BB on 4-1BB+ NFAT Jurkat cells (human, UniProt Q07011); experiment: cell-based or functional assay
[2] = target: T1, L1 (DV1-GV4), soluble human Vδ1/Vγ4 γδ TCR heterodimer in leucine zipper format (human); experiment: SPR (Reichert 4SPR), antibody on Protein A chip, antigen flown over
T1 construct: Biotinylated in the DELFIA ranking; also called Antigen L1 (TRDV1/TRGV4); human DV1-GV4; not shown: gamma chain: Vγ4 (TRGV4) domain on a TCR constant region, leucine zipper, histidine tag
T1 sequence (main, as listed by the source): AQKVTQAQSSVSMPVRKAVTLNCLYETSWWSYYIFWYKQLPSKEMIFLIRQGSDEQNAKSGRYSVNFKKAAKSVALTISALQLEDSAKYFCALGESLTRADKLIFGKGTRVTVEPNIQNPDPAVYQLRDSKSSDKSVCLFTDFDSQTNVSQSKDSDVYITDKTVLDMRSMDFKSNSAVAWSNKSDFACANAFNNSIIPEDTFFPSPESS

[3] = target: Vδ1 chain of the γδ TCR on human Vδ1 γδ T cells (human); experiment: cell-based or functional assay
[4] = target: T2, Vδ1 chain of the γδ TCR on human Vδ1 γδ T cells (human); experiment: flow cytometry on Vδ1 γδ T-cells, anti-human IgG secondary antibody, % cells bound IgG
T2 construct: whole, on cells; also called cell surface Vδ1 TCR; Vδ1-positive γδ T cells
T2 sequence (A0A1B0GX56 22-115, stated change not applied): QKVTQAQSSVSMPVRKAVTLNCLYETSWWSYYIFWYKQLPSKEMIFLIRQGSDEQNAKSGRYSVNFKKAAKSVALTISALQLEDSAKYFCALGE

[5] = target: T2, Vδ1 chain of the γδ TCR on human Vδ1 γδ …; experiment: cell-based or functional assay; remark: listed apart in the source
[6] = target: T1, L1 (DV1-GV4), soluble human Vδ1/Vγ4 γδ …; experiment: DELFIA ELISA, 0.4 nM human TRDV1 antigen; heat map cell of the clone
[7] = target: T3, Her2 on Her2+ breast cancer cells (SK-BR-3, BT-474) (human, UniProt P04626 23-1255); experiment: flow cytometry on SK-BR-3 cells, anti-human IgG secondary antibody
T3 construct: whole, on cells; also called ErbB-2; CD340

[8] = target: T1, L1 (DV1-GV4), soluble human Vδ1/Vγ4 γδ …; experiment: DELFIA, 100 nM biotinylated L1
[9] = target: T2, Vδ1 chain of the γδ TCR on human Vδ1 γδ …; experiment: cell-based or functional assay; remark: listed apart in the source
[10] = target: T2, Vδ1 chain of the γδ TCR on human Vδ1 γδ …; experiment: flow cytometry binding to Vδ1 γδ T cells, donor ATS006; column head printed 'IC50', unit nM from the chart axis and FIG. 34D
Description: (§1) All incubation steps were performed at 4° C. and mAb binding was determined using flow cytometry to measure the median level of fluorescence. Logarithmic four parameter dose-response curves were fitted using GraphPad Prism 9. […] For Vδ1-positive γδ T cell, data is represented as the mean two donors.
(§2) A range of target cells were assayed to determine the specificity and affinity of Vδ1 mAb binding. This included expanded skin-derived Vδ1 γδ T-cells, HEK293T cells, Raji cells, and multiple leukocyte subsets within human primary blood mononuclear cells. Adherent or semi-adherent cells (skin-derived Vδ1 γδ T-cells, HEK293T) were detached from tissue culture flask and resuspended in PBS. Similarly, non-adherent cell types (Raji, PBMC), were harvested and resuspended in PBS. Cells were seeded at a final density of 100,000 cells per well in v-bottom 96-well plates. Cells underwent centrifugation and the cell pellets were resuspended in FcR blocking reagent according to the manufacturer's instructions, and incubated for 20 minutes at 4C prior to a further wash. […] To determine the quantity of mAb bound to the cell surface, the cells were then stained with a murine anti-human IgG secondary antibody, conjugated to APC (dilution: 1:100). For Vδ1 γδ T-cells, HEK293T and Raji, the cells were also stained solely with a viability dye.

[11] = target: T1, L1 (DV1-GV4), soluble human Vδ1/Vγ4 γδ …; experiment: SPR (Reichert 4SPR), antibody on Protein A chip, Vδ1 heterodimer at 6.25-100 nM as analyte
[12] = target: T4, Cyno DV1/GV77 antigen, recombinant cynomolgus Vδ1 heterodimer (cynomolgus monkey); experiment: as above
T4 construct: also called cyno TRDV1; Cyno DV1-77; not shown: delta CDR3/J, TCR constant region, zipper and tag; the whole gamma chain GV77
T4 sequence (delta, as listed by the source limits assumed): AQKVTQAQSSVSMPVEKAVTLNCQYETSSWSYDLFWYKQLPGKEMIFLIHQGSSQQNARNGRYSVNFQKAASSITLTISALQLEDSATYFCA

[13] = target: T1, L1 (DV1-GV4), soluble human Vδ1/Vγ4 γδ …; experiment: SPR (Reichert 4SPR), antibody on Protein A chip, human Vδ1 antigen as analyte; average of two replicates on two instruments
Excerpt: (§3) The binding affinity of the antibodies to target (i.e. the Vδ1 chain of a γδ TCR) is established by SPR analysis using a Reichert 4SPR instrument (Reichert Technologies).
(§4) The binding interaction of Vδ1 and the affinity-matured mAbs were modelled according to Langmuir 1:1 binding.

[14] = target: T4, Cyno DV1/GV77 antigen, recombinant …; experiment: DELFIA ELISA, cyno antigen; heat map cell of the clone
[15] = target: T2, Vδ1 chain of the γδ TCR on human Vδ1 γδ …; experiment: cell-based or functional assay; remark: listed apart in the source
[16] = target: T2, Vδ1 chain of the γδ TCR on human Vδ1 γδ …; experiment: flow cytometry binding to Vδ1 γδ T cells, donor TS164; column head printed 'IC50', unit nM from the chart axis and FIG. 34D
Description: as §1, §2

[17] = target: T1, L1 (DV1-GV4), soluble human Vδ1/Vγ4 γδ …; experiment: DELFIA ELISA on antigen L1 (TRDV1/TRGV4), 1/2 dilution series of mAb
[18] = target: T4, Cyno DV1/GV77 antigen, recombinant …; experiment: SPR (Reichert 4SPR), antibody on Protein A chip
[19] = target: T1, L1 (DV1-GV4), soluble human Vδ1/Vγ4 γδ …; experiment: SPR, captured IgG, human DV1-GV4 flown over
[20] = target: T1, L1 (DV1-GV4), soluble human Vδ1/Vγ4 γδ …; experiment: SPR (summary table)
[21] = target: T2, Vδ1 chain of the γδ TCR on human Vδ1 γδ …; experiment: cell-based or functional assay; remark: listed apart in the source
[22] = target: T1, L1 (DV1-GV4), soluble human Vδ1/Vγ4 γδ …; experiment: DELFIA ELISA, human antigen; heat map cell of the clone
[23] = target: T2, Vδ1 chain of the γδ TCR on human Vδ1 γδ …; experiment: flow cytometry, Vδ1 γδ T cells of donor TS164, mAb titrated up to about 500 nM at 4 C, anti-human IgG detection
Description: as §1, §2

[24] = target: T2, Vδ1 chain of the γδ TCR on human Vδ1 γδ …; experiment: flow cytometry, Vδ1 γδ T cells of donor ATS006, mAb titrated up to about 500 nM at 4 C, anti-human IgG detection
Description: as §1, §2

[25] = target: T2, Vδ1 chain of the γδ TCR on human Vδ1 γδ …; experiment: cell-based or functional assay; remark: listed apart in the source
[26] = target: T1, L1 (DV1-GV4), soluble human Vδ1/Vγ4 γδ …; experiment: SPR (Reichert 4SPR), antibody on Protein A chip, human Vδ1 antigen as analyte; average of two replicates on two instruments; remark: listed apart in the source
Excerpt: as §3, §4

[27] = target: T2, Vδ1 chain of the γδ TCR on human Vδ1 γδ …; experiment: cell-based or functional assay; remark: listed apart in the source

Chain of 4-1BB on 4-1BB+ NFAT Jurkat cells (Q07011 24-255 limits assumed): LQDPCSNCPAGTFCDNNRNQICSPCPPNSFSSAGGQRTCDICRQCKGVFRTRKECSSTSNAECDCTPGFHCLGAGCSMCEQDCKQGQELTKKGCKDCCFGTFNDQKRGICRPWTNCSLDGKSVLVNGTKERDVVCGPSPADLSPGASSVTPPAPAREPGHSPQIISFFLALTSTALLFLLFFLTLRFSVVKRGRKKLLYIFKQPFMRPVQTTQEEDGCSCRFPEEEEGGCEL

B1: Anti-Vδ1xanti-4-1BB (ADT1-4-2xutomilumab) bispecific antibody (bispecific antibody, human IgG1, kappa)
light: DIQMTQSPPALSASVGDRVTITCRASQDINDWLAWYQHKPGKAPKLLIYDASSLESGVPLRFSGSGSGTEFTLTISSLQPDDFATYYCQQKYSAPQVTFGQGTRLEIKRTVAAPSVFIFPPSDEQLKSGTASVVCLLNNFYPREAKVQWKVDNALQSGNSQESVTEQDSKDSTYSLSSTLTLSKADYEKHKVYACEVTHQGLSSPVTKSFNRGEC
heavy: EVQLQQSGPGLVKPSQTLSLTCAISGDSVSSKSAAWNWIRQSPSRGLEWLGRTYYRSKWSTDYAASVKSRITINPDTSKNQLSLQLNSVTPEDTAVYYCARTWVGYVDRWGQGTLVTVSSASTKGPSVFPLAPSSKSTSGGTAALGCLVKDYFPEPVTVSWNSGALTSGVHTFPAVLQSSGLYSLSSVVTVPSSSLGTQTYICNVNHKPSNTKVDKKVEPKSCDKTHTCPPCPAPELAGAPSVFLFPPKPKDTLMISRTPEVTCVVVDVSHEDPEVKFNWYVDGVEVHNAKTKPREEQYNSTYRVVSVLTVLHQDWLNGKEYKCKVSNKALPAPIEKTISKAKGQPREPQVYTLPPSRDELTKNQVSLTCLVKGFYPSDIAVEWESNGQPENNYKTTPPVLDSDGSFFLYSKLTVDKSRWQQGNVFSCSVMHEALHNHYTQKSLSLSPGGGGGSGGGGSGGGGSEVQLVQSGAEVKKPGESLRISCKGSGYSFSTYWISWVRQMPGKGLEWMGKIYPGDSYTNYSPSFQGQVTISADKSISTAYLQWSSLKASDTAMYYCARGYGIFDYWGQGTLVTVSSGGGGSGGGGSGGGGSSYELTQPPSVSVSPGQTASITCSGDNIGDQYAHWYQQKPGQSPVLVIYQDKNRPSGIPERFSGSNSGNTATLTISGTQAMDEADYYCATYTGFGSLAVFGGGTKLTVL
notes: also called ADT1-4-2x 4-1BB; Vδ1-4-1BB bispecific antibody
- EC50 (read off the curve), 4-1BB+ NFAT Jurkat activation assay [1]: 10 to 20 nM
- Kd [2]: 1.2 nM
- IC50 (read off the curve), Vδ1 TCR downregulation, γδ T-cells with activated 4-1BB+ CD8 T-cells [3]: ~0.1 nM
- EC50 (read off the curve) [4]: ~0.3 nM
- IC50 (read off the curve), Vδ1 TCR downregulation, γδ T-cells alone [5]: ~0.2 nM

B2: 1245_P02_G04 (antibody, IgG1, V domains shown)
VH: QVQLQQSGPGLVKPSQTLSLTCAISGDSVSSKSAAWNWIRQSPSRGLEWLGRTYYRSKWSTDYAASVKSRITINPDTSKNQLSLQLNSVTPEDTAVYYCARTWSGYVDVWGQGTLVTVSS
VL: DIQMTQSPPALSASVGDRVTITCRASQDINDWLAWYQHKPGKAPKLLIYDASSLESGVPSRFSGSGSGTEFTLTISSLQPDDFATYYCQQSYSTPQVTFGQGTRLEIK
notes: also called ADT1-4; parental ADT1-4
- ELISA signal (heat map) [6]: 1200
- binding result [7]: no binding (tested: about 300 nM)
- DELFIA signal at 100 nM L1 [8]: 5900 fluorescence units
- IC50 TCR DR (no THP-1) [9]: 38.2 nM
- IC90 TCR DR (noTHP-1) [9]: 72.4 nM
- EC50 [10]: 108 nM
- Kd [11]: 47 nM
- Kd [12]: 397 nM
- Kd [13]: 149 nM
- ELISA signal (heat map) [14]: 196
- TCR downregulation IC50, soluble assay, added in solution [15]: 38.3 nM
- EC50 [16]: 576 nM
- EC50 (read off the curve) [17]: ~0.07 µg/mL

B3: ADT1-4 (S74L) (antibody, V domains shown)
VH: B2 VH
VL: DIQMTQSPPALSASVGDRVTITCRASQDINDWLAWYQHKPGKAPKLLIYDASSLESGVPLRFSGSGSGTEFTLTISSLQPDDFATYYCQQSYSTPQVTFGQGTRLEIKR
notes: Captured on Protein A; also called ADT1-4 (574L)
- fold increase in affinity against ADT1-4 [18]: ~5 fold
- Kd [11]: 3.5 nM
- Kd [12]: 77 nM

B4: ADT1-4-86 (antibody, IgG1, V domains shown)
VH: B2 VH with Q1E, A34V, S104L, Y106N
VL: B2 VL with S60L, S91K, T94E
- IC90 TCR DR (noTHP-1) [9]: 1 nM

B5: ADT1-4-1 (antibody, IgG1, V domains shown)
VH: B2 VH with Q1E, S104V, V107A
VL: B2 VL with S60L, S91R, Q96I
notes: IgG1
- Kd [19]: 0.08 nM
- Kd [20]: 0.08 nM

B6: 1251_P02_G10 (antibody, IgG1, V domains shown)
VH: EVQLVESGGGLVQPGGSLRLSCAASGFTFSDYYMSWIRQAPGKGLEWVSYISSSGSTIYYADSVKGRFTISRDNAKNSLYLQMNSLRAEDTAVYYCARHSWNDAFDIWGRGTLVTVSS
VL: DIQMTQSPSSLSASVGDRVTITCRASQSISSHLNWYQQKPGKAPKLLIYAASSLQSGVPSRFSASGSGTDFTLTISSLQPEDFATYYCQQSYSTLLTFGGGTKVEIK
notes: IgG1
- TCR downregulation (EC50 µg/ml-3 donors) [21]: 0.849 µg/mL
- DELFIA signal at 100 nM L1 [8]: 17100 fluorescence units

B7: ADT1-7-3 (antibody, IgG1, V domains shown)
VH: B6 VH with Q13K, H99V, W101Y, N102A, D103E, R110Q
VL: DIQMTQSPSSLSASVGDRVTIACRAGQSIGTYLNWYQQKPGKAPKLLIYVASSLQSGVPSRFSGSGSGTEFTLTISSLQPEDFATYYCQQSYSGLDTFGRGTKVEIK
notes: IgG1
- ELISA signal (heat map) [22]: 37100
- EC50 [10]: 5.15 nM
- EC50 (read off the curve) [23]: ~1 nM
- EC50 (read off the curve) [24]: ~5 nM
- IC50 TCR DR (no THP-1) [25]: 0.161 nM
- IC90 TCR DR (noTHP-1) [25]: 0.79 nM
- EC50 [16]: 0.952 nM
- Kd [26]: 3.78 nM

B8: ADT1-7-61 (antibody, IgG1, V domains shown)
VH: B6 VH with Q13K, H99D, S100D, W101Y, N102D, R110Q
VL: B7 VL with Y92A, G94E, D96L
notes: IgG1
- ELISA signal (heat map) [22]: 32700
- IC50 of TCR downregulation (Vδ1 TCR staining as % MFI, soluble antibody, 2 h, average of two γδ cell donors) [27]: 6.26 nM
- EC50 [10]: 93 nM
- IC50 TCR DR (no THP-1), one donor only [25]: 0.173 nM
- EC50 [16]: 196 nM
- Kd [26]: 1.04 nM

B9: 1245_P01_B07 (antibody, IgG1, V domains shown)
VH: B6 VH with V5L, Q13K, H99E, S100N, W101Y, N102L, D103N
VL: B6 VL with A25T, I29L, S31N, H32Y, A64G, L95P, V104L
notes: IgG1
- TCR downregulation (EC50 µg/ml), 1 donor only [21]: 0.35 µg/mL
- DELFIA signal at 100 nM L1 [8]: 64300 fluorescence units
